Results from article PMC12219679, “High yield purification of an isoleucine zipper-modified CD95 ligand for efficient cell apoptosis initiation and with biotin or DNA-oligomer binding domain to probe ligand functionalization effects” (BMC Biotechnology, 2025).
“And” between values parts separate entries of the source, which are not always exact repeats. Equal entries are not always repeated.

Tests used:
FLAG-CD95L (Enzo) = target: T1, FLAG-CD95L (Enzo) (UniProt P48023 130-281); assay: ELISA; CD95-His coated at 2 µg/ml in PBS overnight at 4 °C; biotin-IZ-CD95L or FLAG-CD95L 0.1 nM to 100 nM in 0.5% BSA/PBST, 2 h at r.t.; detected with anti-CD95L antibody and HRP secondary; 4-parameter logistic fit; conditions: both partners purified
T1 construct: CD95 ligand (CD95L, Fas ligand), soluble commercial protein with a FLAG tag; No catalogue number is printed; source: bought: Enzo Life Sciences
T1 sequence (looked up): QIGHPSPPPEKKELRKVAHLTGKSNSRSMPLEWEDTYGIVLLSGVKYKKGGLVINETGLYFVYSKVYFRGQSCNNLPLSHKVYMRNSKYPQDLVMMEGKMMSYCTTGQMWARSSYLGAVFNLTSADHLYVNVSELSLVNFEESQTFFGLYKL

[1] = target: the molecule itself; assay: SEC; Superdex 75 10/300 GL (Fig. 3A) or ENrich SEC 70 10 x 300 (Fig. 3B, C); PBS pH 7.4, 0.3 ml/min; sizes from a standard curve of protein standards; peak shares from Gaussian fits

B1: CD95-His (Sino Biological) (receptor, UniProt P25445 26-173, looked up)
chain: QVTDINSKGLELRKTVTTVETQNLEGLHHDGQFCHKPCPPGERKARDCTVNGDEPDCVPCQEGKEYTDKAHFSSKCRRCRLCDEGHGLEVEINCTRTQNTKCRCKPNFFCNSTVCEHCDPCTKCEHGIIKECTLTSNTKCKEEGSRSN
notes: CD95 (Fas, Apo-1), soluble commercial protein with a His tag; No catalogue number is printed; In the functional rows on Hela WT cells the CD95 is the endogenous receptor of the cells; this molecule stands for it; also called Fas; Apo-1; source: bought: Sino Biological
Kd (FLAG-CD95L (Enzo)): 11.3 nM

B2: His-IZ-CD95L (His8-TEV-Cys-IZ-CD95L, secreted form without the IL2 signal peptide) (ligand)
chain: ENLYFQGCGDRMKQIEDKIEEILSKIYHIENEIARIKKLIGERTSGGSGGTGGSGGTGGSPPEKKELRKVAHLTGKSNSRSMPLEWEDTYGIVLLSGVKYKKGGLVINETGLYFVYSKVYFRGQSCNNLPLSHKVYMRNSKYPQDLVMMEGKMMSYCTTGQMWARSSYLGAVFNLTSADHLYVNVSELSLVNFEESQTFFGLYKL
notes: TEV protease cleavage site ENLYFQ, extra cysteine, isoleucine zipper (IZ, variant of the GCN4 leucine zipper) and linker; stands after the His8 tag in the printed insert; CD95 ligand (CD95L, Fas ligand, CD178, TNFSF6), human, extracellular domain, amino acids 137-281, without the stalk region; Origin: a designed isoleucine zipper joined to a natural stretch of CD95L; also called X-IZ-CD95L; …
stoichiometry N [1]: 3 and 2
